How the values were obtained:
NfnB = molecular target: T1, NfnB (Sphingopyxis granuli, UniProt A0A411G9W7); assay: X-ray crystal structure, […] Å; format: binding; conditions: tag-free protein; FMN in pocket at dimer interface
T1 construct: full-length gene in modified pET28b, N-terminal His6 tag with TEV site, E. coli BL21(DE3); tag kept for activity assays, tag-free for crystals
T1 sequence (A0A411G9W7 1-233): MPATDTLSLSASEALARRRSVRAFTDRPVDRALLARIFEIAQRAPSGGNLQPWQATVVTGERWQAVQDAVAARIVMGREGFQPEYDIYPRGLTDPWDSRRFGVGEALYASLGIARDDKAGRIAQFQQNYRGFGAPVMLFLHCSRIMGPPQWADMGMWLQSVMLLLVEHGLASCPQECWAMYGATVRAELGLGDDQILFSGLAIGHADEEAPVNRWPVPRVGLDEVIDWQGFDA

[1] = molecular target: NfnB from Sphingopyxis sp. strain HMH (wildtype) (Sphingopyxis sp. strain HMH); assay: SEC; Superdex 200 column, buffer A (50 mM Tris pH 8.0, 100 mM NaCl); elution peak compared with the monomeric molecular weight
purified protein [2] = substrate: CCC(C)Nc1c([N+](=O)[O-])cc(C(C)(C)C)cc1[N+](=O)[O-]; assay: purified protein; format: biochemical, Sphingopyxis granuli; conditions: 50 mM Tris pH 7.5, 30 °C
purified protein [3] = substrate: CCC(CC)Nc1c([N+](=O)[O-])cc(C)c(C)c1[N+](=O)[O-]; assay: purified protein; format: biochemical, Sphingopyxis granuli; conditions: 50 mM Tris pH 7.5, 30 °C
purified protein [4] = substrate: CCCN(CCC)c1c([N+](=O)[O-])cc(C(C)C)cc1[N+](=O)[O-]; assay: purified protein; conditions: 50 mM Tris pH 7.5, 30 °C
purified protein [5] = substrate: NC(=O)C1=CN([C@@H]2O[C@H](COP(=O)(O)OP(=O)(O)OC[C@H]3O[C@@H](n4cnc5c(N)ncnc54)[C@H](OP(=O)(O)O)[C@@H]3O)[C@@H](O)[C@H]2O)C=CC1; assay: purified protein; format: biochemical, Sphingopyxis granuli; conditions: 12.5 μM butralin, 50 mM Tris pH 7.5, 30 °C, electron donor
purified protein [6] = substrate: NC(=O)C1=CN([C@@H]2O[C@H](COP(=O)(O)OP(=O)(O)OC[C@H]3O[C@@H](n4cnc5c(N)ncnc54)[C@H](OP(=O)(O)O)[C@@H]3O)[C@@H](O)[C@H]2O)C=CC1; assay: purified protein; conditions: pH 7.5; 30.0 °C
purified protein [7] = substrate: CCC(C)Nc1c([N+](=O)[O-])cc(C(C)(C)C)cc1[N+](=O)[O-]; assay: purified protein; conditions: pH 7.5; 30.0 °C
purified protein [8] = substrate: CCC(CC)Nc1c([N+](=O)[O-])cc(C)c(C)c1[N+](=O)[O-]; assay: purified protein; conditions: pH 7.5; 30.0 °C

## Cc1cc2nc3c(=O)[nH]c(=O)nc-3n(C[C@H](O)[C@H](O)[C@H](O)COP(=O)(O)O)c2cc1C [FMN]
NfnB
  X-ray crystal structure, 2.1 Å: We determined the crystal structure of NfnB in the presence of coenzyme FMN

## NfnB from Sphingopyxis sp. strain HMH (wildtype) (enzyme)
[1]
  stoichiometry N: 2

B1: NfnB (Sphingopyxis granuli; Y88A) (protein)
chain: MPATDTLSLSASEALARRRSVRAFTDRPVDRALLARIFEIAQRAPSGGNLQPWQATVVTGERWQAVQDAVAARIVMGREGFQPEYDIAPRGLTDPWDSRRFGVGEALYASLGIARDDKAGRIAQFQQNYRGFGAPVMLFLHCSRIMGPPQWADMGMWLQSVMLLLVEHGLASCPQECWAMYGATVRAELGLGDDQILFSGLAIGHADEEAPVNRWPVPRVGLDEVIDWQGFDA
notes: full-length gene in modified pET28b, N-terminal His6 tag with TEV site, E. coli BL21(DE3); tag kept for activity assays, tag-free for crystals
Purified protein [2]; 200 μM NADPH
  Km: 0.59 (0.077) μM
  kcat: 2.1 s⁻¹
Purified protein [3]; 200 μM NADPH
  Km: 2.9 (0.18) μM
  kcat: 2.5 s⁻¹
Purified protein [4]; 200 μM NADPH
  Km: 0.83 (0.16) μM
  kcat: 1.2 s⁻¹

B2: NfnB (Sphingopyxis granuli; R100A) (protein)
chain: MPATDTLSLSASEALARRRSVRAFTDRPVDRALLARIFEIAQRAPSGGNLQPWQATVVTGERWQAVQDAVAARIVMGREGFQPEYDIYPRGLTDPWDSRAFGVGEALYASLGIARDDKAGRIAQFQQNYRGFGAPVMLFLHCSRIMGPPQWADMGMWLQSVMLLLVEHGLASCPQECWAMYGATVRAELGLGDDQILFSGLAIGHADEEAPVNRWPVPRVGLDEVIDWQGFDA
notes: as for B1
Purified protein [5]
  Km: 58 (4.5) μM
  kcat: 3.9 s⁻¹

B3: NfnB (Sphingopyxis granuli; R100M) (protein)
chain: MPATDTLSLSASEALARRRSVRAFTDRPVDRALLARIFEIAQRAPSGGNLQPWQATVVTGERWQAVQDAVAARIVMGREGFQPEYDIYPRGLTDPWDSRMFGVGEALYASLGIARDDKAGRIAQFQQNYRGFGAPVMLFLHCSRIMGPPQWADMGMWLQSVMLLLVEHGLASCPQECWAMYGATVRAELGLGDDQILFSGLAIGHADEEAPVNRWPVPRVGLDEVIDWQGFDA
notes: as for B1
Purified protein [5]
  Km: 95 (20) μM
  kcat: 4.9 s⁻¹

B4: NfnB (Sphingopyxis granuli) (protein)
chain: MPATDTLSLSASEALARRRSVRAFTDRPVDRALLARIFEIAQRAPSGGNLQPWQATVVTGERWQAVQDAVAARIVMGREGFQPEYDIYPRGLTDPWDSRRFGVGEALYASLGIARDDKAGRIAQFQQNYRGFGAPVMLFLHCSRIMGPPQWADMGMWLQSVMLLLVEHGLASCPQECWAMYGATVRAELGLGDDQILFSGLAIGHADEEAPVNRWPVPRVGLDEVIDWQGFDA
Purified protein [6]
  Km: 7.3 (1.4) μM
Purified protein [7]
  Km: 2.4 (0.50) μM
Purified protein [8]
  Km: 6.8 (1.7) μM

B5: NfnB (Sphingopyxis granuli; Y88F) (protein)
chain: MPATDTLSLSASEALARRRSVRAFTDRPVDRALLARIFEIAQRAPSGGNLQPWQATVVTGERWQAVQDAVAARIVMGREGFQPEYDIFPRGLTDPWDSRRFGVGEALYASLGIARDDKAGRIAQFQQNYRGFGAPVMLFLHCSRIMGPPQWADMGMWLQSVMLLLVEHGLASCPQECWAMYGATVRAELGLGDDQILFSGLAIGHADEEAPVNRWPVPRVGLDEVIDWQGFDA
notes: as for B1
Purified protein [2]; 100 μM NADPH
  Km: 0.81 (0.12) μM
  kcat: 4 s⁻¹
Purified protein [3]; 100 μM NADPH
  Km: 1.6 (0.28) μM
  kcat: 3.6 s⁻¹
Purified protein [4]; 100 μM NADPH
  Km: 2.7 (0.17) μM
  kcat: 0.66 s⁻¹
